Drawing on US20220089736A1, this text covers EC50 for 2 molecules.

Assay [1] addresses CD28 (Cluster of Differentiation 28) (human) (UniProt P10747). The assay can be described thus: flow cytometry, binding to H929 cells (carry CD28 and BCMA; binding largely dependent upon CD28 arm).
Assay [2] has the same target. The assay is described as follows: flow cytometry, binding to human pan T cells; antibody without Vβ17 arm. (In flow cytometry, cells or beads pass a laser one at a time.)

B1: VB28B7 (protein, part only; not given: scFvs, linkers, constant regions, not shown: another chain or arm of the molecule; a dimerising Fc or GST; small tags and cut ends)
VH: QVQLQQPGSELVRPGASVKLSCKASGYTFTSYWMHWVKQRHGQGLEWIGNIYPGSGRTNYDEKFKSKGTLTVDTSSRTAYMHLSSLTSEDSAVYYCTREHYGSNSHPMDYWGQGTSVTVSS
VL: DIQMTQSPASLSASVGETVTITCGASENIYGSLNWYQRKQGKSPQLLIYGATNLADGMSSRFSGSGSGRQFSLKISSLHPDDVATYYCQNLLSTPYTFGGGTKLELK
As to B1, the concentration giving a half-maximal response (EC50) (in general, the midpoint of the concentration-response curve) in assay [1] stood at 0.1 µg/mL; in assay [2] it was 0.06 µg/mL.

B2: VB28B9 (protein, part only; not given: scFvs, linkers, constant regions, not shown: another chain or arm of the molecule; a dimerising Fc or GST; small tags and cut ends)
VH: QVQLQQWGAGLLKPSETLSLTCAVYGGSFSGYYWNWIRQPPGKGLQWIGEINHSGTTNYNPSLKSRVTISVDTSKNQFSLKLSSLTAADTAVYYCARGEAVALYWGQGTLVTVSS
VL: EIVMTQSPATLSVSPGERATLSCRASQSVNSNLAWYQQKPGQAPRLLIYGASARATGIPARFSGSGSGTEFTLTISSLQSEDFAVYYCQQYYNWPLTFGGGTKVEIK
Turning to B2, the EC50 is 0.14 µg/mL in assay [1] and 0.15 µg/mL in assay [2].
